In article PMC4509764:

Assays:
[1] = molecular target: T1, NanR (Clostridium perfringens strain 13) (UniProt P26833); test: EMSA; conditions: 20 mM HEPES pH 7.6, 1 mM EDTA, 10 mM ([…], room temperature 20 min
T1 sequence: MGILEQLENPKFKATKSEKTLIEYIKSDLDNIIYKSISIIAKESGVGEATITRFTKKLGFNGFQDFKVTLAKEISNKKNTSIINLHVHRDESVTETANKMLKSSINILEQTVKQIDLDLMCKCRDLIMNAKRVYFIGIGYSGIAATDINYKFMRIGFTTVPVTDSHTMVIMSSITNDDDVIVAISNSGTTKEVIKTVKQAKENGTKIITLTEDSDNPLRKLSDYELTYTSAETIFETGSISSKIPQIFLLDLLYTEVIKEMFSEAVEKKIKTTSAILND

[2] = molecular target: T1, NanR (Clostridium perfringens strain 13); test: competition; conditions: 20 mM HEPES pH 7.6, 1 mM EDTA, 10 mM ([…], room temperature 20 min

| Sequence | binding [1] | binding [2] |
| --- | --- | --- |
| ATATTTTGATACATGCTCTTTTTTTATGAAATAAATTTTCAAAAACAAAAATTATAGGAATAAAAGTGAAAAAAATATGAATAAAAATGGCTTGAAACATAGGTTGTAGGCATATTTGGAAAAACTAAGAACCATAAAATAGAAAAATATTTTCAAAAAGTATTGAAATTCTGTGGGAAAAGGATTACAATAAAAACATAAAGAAAATAATTTTCAGAAAAAAGGTGATAAAATG (double strand) [nanE promoter probe] | binds | binds |
| CTTTCAATAATTACCCCTCCTAATTTATTTCATTAGTATTTATTATATGGTTCTTAACTTAATTATAACTTATTTCTAGGGAAAGTTATTATTAATTAGTAGATAAATATAAAATTTGCGTAGTATAAACTGTATTTTATACAATTTTAGTAATATTAAAGCTTATTTAAACGTATACATAATATAAGGTC (double strand) [nanJ promoter probe] | binds more weakly |  |
